Patent US20170151343A1 (AbbVie / Abbott, published 2017)
Numbering of substitutions follows the chain as printed. Numbers in names are those of the source.

T1: human LRRC15 (leucine-rich repeat-containing protein 15), expressed on cells (human, UniProt Q8TF66 22-581)
T1 construct: Cells: U118MG (endogenous), HCT116-huLRRC15, 3T12-huLRRC15 transfectants, TGFbeta-treated A549, human BM-MSC; also called huLRRC15; endogenous huLRRC15
T1 sequence: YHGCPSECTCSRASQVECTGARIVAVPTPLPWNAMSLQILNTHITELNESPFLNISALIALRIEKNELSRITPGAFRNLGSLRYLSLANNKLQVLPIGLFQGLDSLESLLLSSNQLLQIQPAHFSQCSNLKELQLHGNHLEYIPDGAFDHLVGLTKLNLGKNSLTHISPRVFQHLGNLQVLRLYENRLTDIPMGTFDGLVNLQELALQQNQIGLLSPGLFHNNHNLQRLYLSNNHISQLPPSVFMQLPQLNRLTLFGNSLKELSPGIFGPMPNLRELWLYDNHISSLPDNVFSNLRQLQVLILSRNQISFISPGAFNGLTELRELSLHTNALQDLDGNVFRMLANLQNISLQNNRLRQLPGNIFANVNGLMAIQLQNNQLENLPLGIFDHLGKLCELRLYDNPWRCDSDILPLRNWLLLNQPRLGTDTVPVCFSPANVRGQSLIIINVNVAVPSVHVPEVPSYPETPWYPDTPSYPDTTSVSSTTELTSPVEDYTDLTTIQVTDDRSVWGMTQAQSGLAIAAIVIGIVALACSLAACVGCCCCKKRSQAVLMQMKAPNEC

T2: huLRRC15-Fc fusion protein (huLRRC15 ECD residues 22 to 526 of SEQ ID NO:3 fused to Fc) (human, UniProt Q8TF66 22-526)
T2 construct: Coated on the ELISA plate at 2 ug/mL; also called huLRRC15-ECD-Fc; huLRRC15 fusion ECD protein
T2 sequence: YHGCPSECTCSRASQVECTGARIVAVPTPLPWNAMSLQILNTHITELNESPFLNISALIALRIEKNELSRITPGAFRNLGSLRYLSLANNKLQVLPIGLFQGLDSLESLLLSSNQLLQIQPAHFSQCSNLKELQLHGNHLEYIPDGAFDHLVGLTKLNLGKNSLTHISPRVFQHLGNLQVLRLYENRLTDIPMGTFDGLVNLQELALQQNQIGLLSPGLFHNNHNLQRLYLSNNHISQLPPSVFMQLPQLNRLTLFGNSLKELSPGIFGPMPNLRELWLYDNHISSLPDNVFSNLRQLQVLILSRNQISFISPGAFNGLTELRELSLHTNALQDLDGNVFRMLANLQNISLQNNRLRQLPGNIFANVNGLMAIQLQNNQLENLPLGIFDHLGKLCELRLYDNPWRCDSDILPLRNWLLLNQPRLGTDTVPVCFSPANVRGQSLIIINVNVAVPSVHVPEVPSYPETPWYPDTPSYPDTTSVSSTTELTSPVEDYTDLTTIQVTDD

B1: huAD208.12.1 (antibody, V domains shown)
VH: EVQLVQSGAEVKKPGSSVKVSCKASGYTFTNYWMHWVKQAPGQGLEWIGMIHPNSGSTKHNEKFRGKATLTVDESTTTAYMELSSLRSEDTAVYYCARSDFGNYRWYFDVWGQGTTVTVSS
VL: EIVLTQSPATLSLSPGERATLSCRASQSSSNNLHWYQQKPGQAPRVLIKYVSQSISGIPARFSGSGSGTDFTLTISSLEPEDFAVYFCQQSNSWPFTFGQGTKLEIK
notes: Humanized full-length antibody
B2: huAD208.4.1 (antibody, V domains shown)
VH: EVQLVQSGAEVKKPGSSVKVSCKASGFTFTDYYIHWVKQAPGQGLEWIGLVYPYIGGTNYNQKFKGKATLTVDTSTTTAYMEMSSLRSEDTAVYYCARGDNKYDAMDYWGQGTTVTVSS
VL: DIVLTQSPDSLAVSLGERATINCRASQSVSTSSYSYMHWYQQKPGQPPKLLIKYASSLESGVPDRFSGSGSGTDFTLTISSLQAEDVAVYYCEQSWEIRTFGGGTKVEIK
notes: Humanized full-length antibody, compared with a huIgG1 isotype control
B3: huAD208.14.1 (antibody, V domains shown)
VH: B2 VH with T58S, N59S, K63Q, T77S, M83L, K102N
VL: B2 VL with N22S, S33T, S35N, I52V, S57N, E93H, Q94H, S95T
notes: Humanized full-length antibody; Compared with a huIgG1 isotype control
B4: hu139.10 (antibody, V domains shown)
VH: EVQLVESGGGLVQPGGSLRLSCAVSGFSLTSYGVHWVRQATGKGLEWLGVIWAGGSTNYNSALMSRLTISKENAKSSVYLQMNSLRAGDTAMYYCATHMITEDYYGMDYWGQGTTVTVSS
VL: DIVMTQSPDSLAVSLGERATINCKSSQSLLNSRTRKNYLAWYQQKPGQSPKLLIYWASTRESGVPDRFSGSGSGTDFTLTISSLQAEDVAVYYCKQSYNLPTFGGGTKVEIK
notes: as for B3
B5: huM25-mcMMAF-E2 (antibody, human IgG1, kappa)
heavy: not shown
light: DIQMTQSPSSLSASVGDRVTITCRASQDISNYLNWYQQKPGGAVKFLIYYTSRLHSGVPSRFSGSGSGTDYTLTISSLQPEDFATYFCQQGEALPWTFGGGTKVEIKRTVAAPSVFIFPPSDEQLKSGTASVVCLLNNFYPREAKVQWKVDNALQSGNSQESVTEQDSKDSTYSLSSTLTLSKADYEKHKVYACEVTHQGLSSPVTKSFNRGEC
modifications: mcMMAF (maleimidocaproyl monomethyl auristatin F) on cysteines of reduced interchain disulfides, two drugs per antibody (E2); which chain carries them is not stated
B6: huM25-vcMMAE-E2 (antibody, human IgG1, kappa)
heavy: not shown
light: B5 light
modifications: vcMMAE (maleimidocaproyl-Val-Cit-PABA-monomethyl auristatin E) on cysteines of reduced interchain disulfides, two drugs per antibody (E2); which chain carries them is not stated
B7: huM25 (antibody, human IgG1, kappa)
heavy: not shown
light: B5 light
notes: Humanized IgG1 kappa; also called huM25-AF647
B8: huM25-S239C-PBD-E2 (antibody, human IgG1, kappa)
heavy: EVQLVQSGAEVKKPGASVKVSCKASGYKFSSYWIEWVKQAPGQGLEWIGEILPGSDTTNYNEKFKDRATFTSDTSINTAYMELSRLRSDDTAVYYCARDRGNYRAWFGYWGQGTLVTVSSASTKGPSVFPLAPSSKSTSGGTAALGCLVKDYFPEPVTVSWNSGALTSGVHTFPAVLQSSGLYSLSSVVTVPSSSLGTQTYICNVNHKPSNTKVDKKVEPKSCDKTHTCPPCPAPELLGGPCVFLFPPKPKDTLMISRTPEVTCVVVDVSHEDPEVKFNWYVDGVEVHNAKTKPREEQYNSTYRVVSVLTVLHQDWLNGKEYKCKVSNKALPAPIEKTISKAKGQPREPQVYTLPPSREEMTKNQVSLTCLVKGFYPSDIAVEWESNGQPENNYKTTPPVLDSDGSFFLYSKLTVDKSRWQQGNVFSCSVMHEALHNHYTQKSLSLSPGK
light: B5 light
modifications: vaPBD (Val-Ala pyrrolobenzodiazepine dimer synthon) on the engineered cysteine S239C, DAR2
B9: muAD210.40.9 (antibody, V domains shown)
VH: QVQLQQSGAELVRPGTSVKISCKASGYDFTNYWLGWVKQRPGHGLEWIGDIYPGGGNTYYNEKLKGKATLTADKSSSTAYIHLISLTSEDSSVYFCARWGDKKGNYFAYWGQGTLVTVSA
VL: QIVLTQSPAIMSASLGERVTMTCTASSSVYSSYLHWYQQKPGSSPKLWIYSTSNLASGVPGRFSGSGSGTSYSLTISSMEAEDAATYYCHQYHRSPTFGGGTKLEIK
notes: Murine antibody; Compared with a muIgG2a isotype control
B10: muAD209.9.1 (antibody, V domains shown)
VH: QIQLVQSGPELKKPGETVKISCKASGFAITNFGMNWVKQAPGKGLKWMGWINLYTGEPTFADDFKGRFAFSLETSASTAYLQINNLKNEDTVIYFCARKGETYYRYDGFAYWGQGTLVTVSA
VL: DIVMTQAAPSVPVTPGESVSISCRSSKSLLHSNGNTHLYWFLQRPGQSPQLLIYRMSNLASGVPDRFSGSGSGTAFTLRISRVEAEDVGVYYCMQLLEYPYTFGGGTKLEIE
notes: as for B9

Experiments:
[1] = molecular target: T1, human LRRC15 (leucine-rich …); test: flow cytometry on U118MG cells
Excerpt: Isotype control antibodies (mouse or human) were used as appropriate.

[2] = molecular target: T2, huLRRC15-Fc fusion protein (huLRRC15 …); test: ELISA on coated huLRRC15-ECD-Fc
Description: 96-well Immulon 4HBX plates (Thermo, cat. #3855) were coated with 100 μL/well of this huLRRC15 fusion ECD protein at 2 μg/mL in carbonate-bicarbonate buffer (Thermo, cat.#28382) pH 9.4 and allowed to bind overnight at 4° C. Plates were washed three times with PBST and then incubated with various concentrations of antibodies in PBST+0.3% BSA at room temperature for one hour. […] Plates were washed three times in PBST and 100 μL of TMB (Surmodics BioFx cat.# TMBW-1000-01) was added to each well and incubated at RT until color developed (approximately 10 minutes). Reactions were stopped by the addition of 650 nm Stop Reagent for TMB (Surmodics BioFx, cat.# BSTP-0100-01), and optical density (OD) was read at 650 nm (Molecular Devices Versamax PLUS).

[3] = molecular target: T1, human LRRC15 (leucine-rich …); test: cell-based or functional assay
[4] = molecular target: T1, human LRRC15 (leucine-rich …); test: flow cytometry competition on U118MG cells; unlabeled antibody titrated against muM25-AF488 at 1 ug/ml, GeoMean normalized to muM25-AF488 alone

Binder | EC50 [1] [nM] | EC50 [2] [nM] | other results
B1 |  |  | binding result [1]: binds
B2 | 0.29 | 0.25 | 
B3 | 5.25 | 0.8 | 
B4 | 0.28 | 0.11 | 
B5 |  |  | in vitro killing of HCT116-huLRRC15 cells, EC50 [3]: 0.028 nM
B6 |  |  | in vitro killing of HCT116-huLRRC15 cells, EC50 [3]: 0.069 nM
B7 | 0.498 | 0.26 | IC50 (read off the curve) [4]: ~0.4 µg/mL
B8 |  |  | in vitro killing of A549-EMT transformed cells treated with TGFbeta, EC50 [3]: 0.01 nM
B9 | 0.08 |  | 
B10 | 0.787 | 0.14 | 
